Experiment [1] deals with T1, recombinant Thermus thermophilus SlyD FKBP-Her3 (TtSlyD-FKBP-Her3).
T1 construct: expressed in E. coli, the N-terminal methionine can be present or not; also called thermo SlyD-Her3; T.T.SlyD-Her3
T1 chain: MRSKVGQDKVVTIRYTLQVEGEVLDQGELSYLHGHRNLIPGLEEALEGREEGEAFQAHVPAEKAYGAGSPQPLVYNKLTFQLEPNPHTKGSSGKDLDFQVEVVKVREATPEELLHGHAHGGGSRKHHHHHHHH
The experiment in a line: SPR, antibody captured. The procedure: In all assay the test antibodies were captured. The system was under the control of the software version V1.1. The instrument buffer was HBS-EP (10 mM HEPES (pH 7.4), 150 mM NaCl, 1 mM EDTA, 0.05% (w/v) P20). The system operated at 25° C. 30 μg/ml Rabbit polyclonal antibody (RAM IgG, (Rabbit anti Mouse IgG with Fc gamma specificity) GE Healthcare) in 10 mM sodium acetate buffer (pH 4.5) was immobilized using EDC/NHS chemistry according to the manufacturer's instructions on the spots 1, 2, 4 and 5 in the flow cells 1, 2, 3 and 4. The sensor was saturated using 1M ethanolamine. In each flow cell, referenced signals were calculated using spots 1-2 and spots 5-4, spot 3 served as a blanc control. […] The antibody capture level (CL) in response units was monitored. […] Thereafter, the antibody-antigen complex dissociation signal was recorded for 5 min. […] The recorded signal shortly before the end of the injection of the antigen was denoted as binding late (BL) in response units. The recorded signal shortly before the end of the recording of the dissociation is denoted as stability late (SL) in response units. The dissociation rate constants were determined calculated The antibody-antigen complex stability in minutes was calculated with the following formula: […]. The Molar Ratio was calculated with the formula: MW (antibody)/MW (antigen) *BL (antigen)/CL (antibody). […]
For orientation: SPR reads the build-up and loss of mass on a sensor chip optically.

The target in experiment [2] is T2, human Heregulin fragment (HRG) (human).
T2 construct: a 44 kDa homodimeric protein, expressed in FreeStyle 293-F cells; also called Heregulin beta (HRG)
T2 chain: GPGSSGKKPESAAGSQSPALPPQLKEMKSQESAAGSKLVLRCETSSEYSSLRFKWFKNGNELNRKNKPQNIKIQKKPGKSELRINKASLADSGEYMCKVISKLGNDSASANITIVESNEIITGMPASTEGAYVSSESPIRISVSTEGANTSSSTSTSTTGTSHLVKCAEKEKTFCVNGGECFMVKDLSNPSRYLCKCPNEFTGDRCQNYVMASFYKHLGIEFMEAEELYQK
The experiment in a line: SPR Biacore T100, antibody captured, 25 C.

Experiment [3] concerns the target T3, HER4 ECD-HRG complex (Heregulin-complexed Her-4 ECD) (human, UniProt Q15303 26-651).
T3 construct: Her-4 ECD incubated with a 5-fold molar excess of Heregulin
T3 sequence 1: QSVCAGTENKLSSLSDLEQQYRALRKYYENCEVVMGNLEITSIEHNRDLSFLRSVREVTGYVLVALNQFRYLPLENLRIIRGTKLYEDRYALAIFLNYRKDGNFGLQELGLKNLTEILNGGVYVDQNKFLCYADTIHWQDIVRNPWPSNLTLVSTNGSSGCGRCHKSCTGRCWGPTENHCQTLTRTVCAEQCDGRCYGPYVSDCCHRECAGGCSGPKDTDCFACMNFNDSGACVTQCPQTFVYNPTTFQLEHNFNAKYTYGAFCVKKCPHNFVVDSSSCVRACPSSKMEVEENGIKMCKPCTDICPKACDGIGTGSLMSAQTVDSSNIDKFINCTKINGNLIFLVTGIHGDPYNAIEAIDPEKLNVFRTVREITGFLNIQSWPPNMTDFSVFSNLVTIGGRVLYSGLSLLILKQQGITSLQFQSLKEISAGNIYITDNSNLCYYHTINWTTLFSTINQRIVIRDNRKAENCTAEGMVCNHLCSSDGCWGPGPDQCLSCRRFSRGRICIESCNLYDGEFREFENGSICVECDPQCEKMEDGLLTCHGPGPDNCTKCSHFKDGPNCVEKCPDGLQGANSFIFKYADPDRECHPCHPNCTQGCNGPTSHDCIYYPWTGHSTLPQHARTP
T3 sequence 2: T2 chain
In words: SPR Biacore T100, antibody captured, 25 C.

In experiment [4] the target is T1, recombinant Thermus thermophilus SlyD …. In words: SPR Biacore T100, antibody captured, 25 C.
Another experiment addresses T4, TtSlyD-Wildtype.
T4 construct: scaffold without insert; N-terminal methionine can be present or not; also called T.T.SlyD-wt; wild type Thermus thermophilus SlyD protein
T4 chain: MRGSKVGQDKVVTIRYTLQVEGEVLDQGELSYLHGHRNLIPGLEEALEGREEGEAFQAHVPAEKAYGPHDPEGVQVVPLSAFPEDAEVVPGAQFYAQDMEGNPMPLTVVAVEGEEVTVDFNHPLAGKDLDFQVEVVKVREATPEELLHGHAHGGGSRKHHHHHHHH
The experiment in a line: SPR Biacore T100, antibody captured, 25 C.

Experiment [5] addresses T5, HER1, full length, on transfected HEK293 cells (human, UniProt P00533 25-1210).
T5 construct: HEK293 transiently transfected with a plasmid coding for full length HER1; also called EGFR
In words: IHC on HEK293 cells transiently transfected with full length HER1. The procedure: All selected clones were tested for reactivity and specificity in IHC. […] After an additional fixation in formalin overnight the Agarose blocks were embedded in paraffin. Untransfected HEK293 cells were used as negative controls and treated accordingly to the transfected cells. After paraffin embedding 3 μm thin sections were prepared using a microtome. The sections were mounted on glass microscopy slides and dried for 2 h. All further steps of the immunohistochemical staining procedure were carried out using a Ventana Benchmark XT. The slides were dewaxed and antigen retrieval was performed by applying heat for 1 hour. For antigen retrieval the Ventana buffer CC1 was used. The antibodies were used at a concentration of 1 μg/ml. For the detection of bound antibody the Ventana UltraView detection kit was used.

B1: anti-HER3 antibody M-08-11 (antibody, V domains shown)
VH: QAYLQQSGAELMRPGASVRMSCQASGYTFTSYTIHWLKQTPRQGLEWIGAIYPRNGDFSYNQKFKDKASLTVDTSSSTAYMHLSSLTSEDSAVYFCARTINYGDWFAYWGQGTLVTVSA
VL: DIQMIQSPASLFVSEGETVIITCRASENIYSNLAWYHQKKGKSPQVLVYAAIKLADGVPLRFSGSGSGTQFSLKINSLQSEDFGSYYCQHFWGPPYTFGSGTNLEIK
notes: mouse monoclonal antibody from hybridoma, tested as hybridoma supernatant or as antibody; also called M-011
As to B1, in experiment [1], the “ratio Ka (Thermus thermophilus SlyD FKBP-Her3)/Ka (HER3-ECD)” value is no less than 1.5 ratio. Besides, in experiment [1], the “ratio MR (Thermus thermophilus SlyD FKBP-Her3)/MR (HER3-ECD)” value is no less than 2 ratio. For the same molecule, the binding result in experiment [2] is recorded as “no binding (tested: 90 nM)”; in experiment [3], “no binding (tested: 90 nM)”; with TtSlyD-Wildtype it was “no binding (tested: 90 nM)”; in experiment [5] it was “no binding”. The “MR (Molar Ratio)” value in experiment [4] turned out to be 1.4.

(Values after patent publication US20180094062A1 (Hoffmann-La Roche, published 2018).)
